Experimental data reported in PMC11555231 (2024).
Ends that are not written are not given here.

B1: PADI4_11 analogue with E2 replaced by aspartic acid (peptide)
chain: YDSCRYRQVLQL
modifications: as PADI4_11: thioether cyclisation between the N-terminus and the side chain of C4; C-terminal amide
B2: PADI4_11 Q11A (peptide)
chain: YESCRYRQVLAL
B3: PADI4_11 V9A (peptide)
chain: YESCRYRQALQL
B4: PADI4_11 analogue with R5 replaced by alanine (peptide)
chain: YESCAYRQVLQL
modifications: as PADI4_11: thioether cyclisation between the N-terminus and the side chain of C4; C-terminal amide
B5: PADI4_11 S3A (peptide)
chain: YEACRYRQVLQL
B6: PADI4_11 Y6A (peptide)
chain: YESCRARQVLQL
B7: PADI4_11 analogue with R7 replaced by alanine (peptide)
chain: YESCRYAQVLQL
modifications: as PADI4_11: thioether cyclisation between the N-terminus and the side chain of C4; C-terminal amide
B8: PADI4_11 analogue with E2 replaced by glutamine (peptide)
chain: YQSCRYRQVLQL
modifications: as PADI4_11: thioether cyclisation between the N-terminus and the side chain of C4; C-terminal amide
B9: PADI4_11 analogue with R5 replaced by lysine (peptide)
chain: YESCKYRQVLQL
modifications: as PADI4_11: thioether cyclisation between the N-terminus and the side chain of C4; C-terminal amide
B10: PADI4_11 L12A (peptide)
chain: YESCRYRQVLQA
B11: 11B (peptide)
chain: YESCRY
B12: PADI4_11 (peptide)
peptide: YESCRYRQVLQL
modifications: not fully specified; L-tyrosine at position 1; cyclised via a thioether bond between the N-terminus (chloroacetylated) and the side chain of C4; C-terminal amide
B13: PADI4_11 analogue with E2 replaced by alanine (peptide)
chain: YASCRYRQVLQL
modifications: as PADI4_11: thioether cyclisation between the N-terminus and the side chain of C4; C-terminal amide
B14: PADI4_11 Y1A (peptide)
chain: AESCRYRQVLQL
B15: PADI4_11 Q8A (peptide)
chain: YESCRYRAVLQL
B16: PADI4_11 L10A (peptide)
chain: YESCRYRQVAQL
B17: PADI4_11 analogue with C4 replaced by alanine (peptide)
chain: YESARYRQVLQL-NH2
B18: PADI4_11 analogue with R7 replaced by lysine (peptide)
chain: YESCRYKQVLQL
modifications: as PADI4_11: thioether cyclisation between the N-terminus and the side chain of C4; C-terminal amide
B19: PADI4_3 variant with R7 replaced by tryptophan (peptide)
chain: YRDHHYWHPKYCG
modifications: as PADI4_3: D-tyrosine at position 1; thioether cyclisation between the N-terminus and the cysteine side chain; C-terminal amide
B20: PADI4_3_K10I (peptide)
chain: YRDHHYRHPIYCG
B21: PADI4_3_K10V (peptide)
chain: YRDHHYRHPVYCG
B22: PADI4_3 variant with R7 replaced by asparagine (peptide)
chain: YRDHHYNHPKYCG
modifications: as PADI4_3: D-tyrosine at position 1; thioether cyclisation between the N-terminus and the cysteine side chain; C-terminal amide
B23: PADI4_3 variant with R7 replaced by alanine (peptide)
chain: YRDHHYAHPKYCG
modifications: as PADI4_3: D-tyrosine at position 1; thioether cyclisation between the N-terminus and the cysteine side chain; C-terminal amide
B24: PADI4_3_Y6H (peptide)
chain: YRDHHHRHPKYCG
B25: PADI4_3_dY1(OMe)Y (peptide)
chain: YRDHHYRHPKYCG
B26: PADI3_H4R_K10_I (peptide)
peptide: YRDRHYRHPIYCG
modifications: D-tyrosine at position 1; N-terminus joined to the side chain of Cys12 by a thioether bond (cyclic); C-terminal amide

molecular target: T1, N-terminally biotinylated recombinant human PADI4 (bio-His-PADI4) (human, UniProt Q9UM07 1-663, biotin on the N-terminal Avi-Tag (BirA)); experiment: SPR
T1 sequence (Q9UM07 whole entry): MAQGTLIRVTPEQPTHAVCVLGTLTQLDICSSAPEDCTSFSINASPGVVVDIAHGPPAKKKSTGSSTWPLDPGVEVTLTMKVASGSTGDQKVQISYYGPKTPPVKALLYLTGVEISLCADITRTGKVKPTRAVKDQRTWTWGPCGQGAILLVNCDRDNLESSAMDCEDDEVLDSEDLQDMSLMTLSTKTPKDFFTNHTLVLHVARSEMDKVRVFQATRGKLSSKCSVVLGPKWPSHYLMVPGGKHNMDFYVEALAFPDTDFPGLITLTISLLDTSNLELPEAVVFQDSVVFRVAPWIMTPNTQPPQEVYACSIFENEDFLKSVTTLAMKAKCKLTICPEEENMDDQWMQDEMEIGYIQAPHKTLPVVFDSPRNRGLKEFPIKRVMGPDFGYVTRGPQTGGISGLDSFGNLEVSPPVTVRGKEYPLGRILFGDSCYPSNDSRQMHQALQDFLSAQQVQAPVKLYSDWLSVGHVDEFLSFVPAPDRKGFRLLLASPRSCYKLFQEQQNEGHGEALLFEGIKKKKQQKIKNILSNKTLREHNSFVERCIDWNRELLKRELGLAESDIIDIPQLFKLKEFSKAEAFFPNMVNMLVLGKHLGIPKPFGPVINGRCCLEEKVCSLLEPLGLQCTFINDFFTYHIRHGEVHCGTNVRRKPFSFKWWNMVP

Row | Binder | Kd
1 | B1 | 41000 nM
2 | B2 | 310 nM
3 | B3 | 14000 nM
4 | B4 | 34000 nM
5 | B5 | 160 nM
6 | B6 | 13000 nM
7 | B7 | 4000 nM
8 | B8 | 20000 nM
9 | B9 | 1400 nM
10 | B10 | 5100 nM
11 | B11 | > 2000 nM
12 | B12 | 500 nM
13 | B13 | 114000 nM
14 | B14 | 11100 nM
15 | B15 | 500 nM
16 | B16 | 300 nM
17 | B17 | 118000 nM
18 | B18 | 700 nM

molecular target: T1, N-terminally biotinylated recombinant …; experiment: SPR; remark: another data set of the same source

Row | Binder | Kd
19 | B19 | 6 nM
20 | B20 | 4 nM
21 | B21 | 5 nM
22 | B22 | 41 nM
23 | B23 | 8 nM
24 | B24 | 30 nM
25 | B25 | 23 nM
26 | B26 | 7 nM
